Consider 2 proteins from PMC2169338 (The Journal of Cell Biology, 1999).

Data set [1] deals with the molecule itself. Nature of the data set: 35S-sulfate labelling, SDS-PAGE and phosphorimaging of the purified complex.
The data set “SDS-PAGE” deals with the molecule itself. Kind of data set: SDS-PAGE.

The term stoichiometry N denotes a count of units in the complex or per binding partner.

B1: Tom40 (natural protein)
chain: not shown
With B1, the “stoichiometry N” value in data set [1] is ~8 copies of Tom40 in the core complex.

B2: Tom70 (receptor, UniProt P23231 1-624, looked up)
chain: MAPTIPPPSVPIPAATPVTVPADSSIWDRVSNWVSEHKAVVYTIAGVSVVITTAGVVYYLRKGSEQKESGPKLSKKERRKRKQAEKGEAEKASTSKTEEAAPTQPKAAAVESADELPEIDEESVVRLSEDERKAYAAKLKELGNKAYGSKDFNKAIDLYSKAIICKPDPVYYSNRAACHNALAQWEQVVADTTAALKLDPHYVKALNRRANAYDQLSRYSDALLDFTASCIIDGFRNEQSAQAVERLLKKFAENKAKEILETKPPKLPSSTFVGNYLQSFRSKPRPEGLEDSVELSEETGLGQLQLGLKHLESKTGTGYEEGSAAFKKALDLGELGPHEALAYNLRGTFHCLMGKHEEALADLSKSIELDPAMTQSYIKRASMNLELGHPDKAEEDFNKAIEQNAEDPDIYYHRAQLHFIKGEFAEAAKDYQKSIDLDSDFIFSHIQLGVTQYKMGSIASSMATFRRCMKNFDQTPDVYNYYGELLLDQNKFQEAIEKFDTAIALEKETKPMCMNVLPLINKALALFQWKQDYAEAEQLCEKALIIDPECDIAVATMAQLLLQQGKVVEALKFFERAAELARTEGELVNALSYAEATRTQIQVQENYPELASKLQGMSGGPGMR
Take B2: the “stoichiometry N” value in “SDS-PAGE” came to 2.
